Experimental findings from ChEMBL document CHEMBL1250451, “Mechanistic insights into a Ca2+-dependent family of alpha-mannosidases in a human gut symbiont” (Nat Chem Biol, 2010) are described below.

As a reminder, the Km is the concentration of substrate that gives half-maximal velocity. Broadly, the kcat is the number of substrate molecules converted per active site and unit of time at saturation. As a reminder, the kcat/Km is the second-order rate constant that governs catalysis at low substrate concentration.

Holding throughout (format): protein assay
Substrate in data set [1]: O=[N+]([O-])c1ccc(O[C@H]2O[C@H](CO)[C@@H](O)[C@H](O)[C@@H]2O)cc1
The data set can be described thus: (§1) Activity of Bacteroides thetaiotaomicron GH92 alpha-mannosidase 3990 S86A mutant assessed as mannose release after 16 hrs by HPLC relative to wild type enzyme.

Substrate in data set [2]: OC[C@H]1O[C@H](O[C@H]2[C@@H](O)[C@H](O)[C@@H](CO)O[C@@H]2O)[C@@H](O)[C@@H](O)[C@@H]1O
Described as §1.

Substrate in data set [3]: O=[N+]([O-])c1ccc(O[C@H]2O[C@H](CO)[C@@H](O)[C@H](O)[C@@H]2O)cc1
The data set can be described thus: (§2) Ratio of Kcat to Km for Bacteroides thetaiotaomicron GH92 alpha-mannosidase 3990 S86A mutant assessed as mannose release after 16 hrs by HPLC relative to wild type enzyme.

Substrate in data set [4]: OC[C@H]1O[C@H](O[C@H]2[C@@H](O)[C@H](O)[C@@H](CO)O[C@@H]2O)[C@@H](O)[C@@H](O)[C@@H]1O
The description is as §2.

Substrate in data set [5]: O=[N+]([O-])c1ccc(O[C@H]2O[C@H](CO)[C@@H](O)[C@H](O)[C@@H]2O)c([N+](=O)[O-])c1
The data set is described as §2.

Substrate in data set [6]: O=[N+]([O-])c1ccc(O[C@H]2O[C@H](CO)[C@@H](O)[C@H](O)[C@@H]2O)cc1
The data set can be described thus: (§3) Activity of Bacteroides thetaiotaomicron GH92 alpha-mannosidase 3990 E643A mutant assessed as as mannose release after 16 hrs by HPLC relative to wild type enzyme.

Substrate in data set [7]: OC[C@H]1O[C@H](O[C@H]2[C@@H](O)[C@H](O)[C@@H](CO)O[C@@H]2O)[C@@H](O)[C@@H](O)[C@@H]1O
The data set is described as §3.

Substrate in data set [8]: O=[N+]([O-])c1ccc(O[C@H]2O[C@H](CO)[C@@H](O)[C@H](O)[C@@H]2O)cc1
As to the kind of experiment: (§4) Ratio of Kcat to Km for Bacteroides thetaiotaomicron GH92 alpha-mannosidase 3990 E643A mutant assessed as as mannose release after 16 hrs by HPLC relative to wild type enzyme.

Substrate in data set [9]: OC[C@H]1O[C@H](O[C@H]2[C@@H](O)[C@H](O)[C@@H](CO)O[C@@H]2O)[C@@H](O)[C@@H](O)[C@@H]1O
The description is as §4.

Substrate in data set [10]: O=[N+]([O-])c1ccc(O[C@H]2O[C@H](CO)[C@@H](O)[C@H](O)[C@@H]2O)c([N+](=O)[O-])c1
The data set is described as §4.

Substrate in data set [11]: O=[N+]([O-])c1ccc(O[C@H]2O[C@H](CO)[C@@H](O)[C@H](O)[C@@H]2O)cc1
The data set can be described thus: (§5) Activity of Bacteroides thetaiotaomicron GH92 alpha-mannosidase 3990 D642A mutant assessed as as mannose release after 16 hrs by HPLC relative to wild type enzyme.

Substrate in data set [12]: OC[C@H]1O[C@H](O[C@H]2[C@@H](O)[C@H](O)[C@@H](CO)O[C@@H]2O)[C@@H](O)[C@@H](O)[C@@H]1O
The description is as §5.

Substrate in data set [13]: O=[N+]([O-])c1ccc(O[C@H]2O[C@H](CO)[C@@H](O)[C@H](O)[C@@H]2O)cc1
As to the kind of experiment: (§6) Ratio of Kcat to Km for Bacteroides thetaiotaomicron GH92 alpha-mannosidase 3990 D642A mutant assessed as as mannose release after 16 hrs by HPLC relative to wild type enzyme.

Substrate in data set [14]: OC[C@H]1O[C@H](O[C@H]2[C@@H](O)[C@H](O)[C@@H](CO)O[C@@H]2O)[C@@H](O)[C@@H](O)[C@@H]1O
Described as §6.

Substrate in data set [15]: O=[N+]([O-])c1ccc(O[C@H]2O[C@H](CO)[C@@H](O)[C@H](O)[C@@H]2O)c([N+](=O)[O-])c1
The description is as §6.

B1: Alpha-1,2-mannosidase (BT_3990) (Bacteroides thetaiotaomicron), Q8A0N1 S86A (protein)
chain: MKRLLLIACILNCTLLSQAKDWTQYVNPLMGSQSTFELSTGNTYPAIARPWGMNFWTPQTGKMGDGWQYTYTANKIRGFKQTHQPAPWINDYGQFSIMPIVGQPVFDEEKRASWFAHKGEVATPYYYKVYLAEHDIVTEMTPTERAVLFRFTFPENDHSYVVVDAFDKGSYIKIIPEENKIIGYTTRNSGGVPENFKNYFIIEFDKPFTYKATVENGNLQENVAEQTTDHAGAIIGFKTRKGEQVNARIASSFISFEQAAANMNELGKDNIEQLAQKGKDAWNQVLGKIEVEGGNLDQYRTFYSCLYRSLLFPRKFYELDANGQPIHYSPYNGQVLPGYMFTDTGFWDTFRCLFPLLNLMYPSVNKEMQEGLINTYLESGFFPEWASPGHRGCMVGNNSASILVDAYMKGVKVDDIKTLYEGLIHGTENVHPEVSSTGRLGYEYYNKLGYVPYDVKINENAARTLEYAYDDWCIYRLAKELKRPKKEISLFAKRAMNYKNLFDKESKLMRGRNEDGTFQSPFSPLKWGDAFTEGNSWHYTWSVFHDPQGLIDLMGGKEMFVTMMDSVFAVPPIFDDSYYGQVIHEIREMTVMNMGNYAHGNQPIQHMIYLYDYAGQPWKAQYWLRQVMDRMYTPGPDGYCGDEDNGQTSAWYVFSALGFYPVCPGTDEYVMGTPLFKKATLHFENGNSLVIDAPNNSTENFYIDSMSFNGADHTKNYLRHEDLFKGGTIKVDMSNRPNLNRGTKEEDMPYSFSKE
On to B1, for which the Michaelis-Menten constant (Km) is 8.5 mM in data set [1] and 3.2 mM in data set [2]. For the same protein, the results for the kcat in [1] and in data set [2] were 0.00667 s⁻¹ and 2 s⁻¹, respectively. For the same protein, the kcat/Km in [3] came out at 0.783 M⁻¹ s⁻¹; in [4], 6330 M⁻¹ s⁻¹; in data set [5] it was 51.7 M⁻¹ s⁻¹.

B2: Alpha-1,2-mannosidase (BT_3990) (Bacteroides thetaiotaomicron), Q8A0N1 E643A (protein)
chain: MKRLLLIACILNCTLLSQAKDWTQYVNPLMGSQSTFELSTGNTYPAIARPWGMNFWTPQTGKMGDGWQYTYTANKIRGFKQTHQPSPWINDYGQFSIMPIVGQPVFDEEKRASWFAHKGEVATPYYYKVYLAEHDIVTEMTPTERAVLFRFTFPENDHSYVVVDAFDKGSYIKIIPEENKIIGYTTRNSGGVPENFKNYFIIEFDKPFTYKATVENGNLQENVAEQTTDHAGAIIGFKTRKGEQVNARIASSFISFEQAAANMNELGKDNIEQLAQKGKDAWNQVLGKIEVEGGNLDQYRTFYSCLYRSLLFPRKFYELDANGQPIHYSPYNGQVLPGYMFTDTGFWDTFRCLFPLLNLMYPSVNKEMQEGLINTYLESGFFPEWASPGHRGCMVGNNSASILVDAYMKGVKVDDIKTLYEGLIHGTENVHPEVSSTGRLGYEYYNKLGYVPYDVKINENAARTLEYAYDDWCIYRLAKELKRPKKEISLFAKRAMNYKNLFDKESKLMRGRNEDGTFQSPFSPLKWGDAFTEGNSWHYTWSVFHDPQGLIDLMGGKEMFVTMMDSVFAVPPIFDDSYYGQVIHEIREMTVMNMGNYAHGNQPIQHMIYLYDYAGQPWKAQYWLRQVMDRMYTPGPDGYCGDADNGQTSAWYVFSALGFYPVCPGTDEYVMGTPLFKKATLHFENGNSLVIDAPNNSTENFYIDSMSFNGADHTKNYLRHEDLFKGGTIKVDMSNRPNLNRGTKEEDMPYSFSKE
In the case of B2, the Km entry in data set [6] and in data set [7] was “Not Active” throughout. The kcat entry in data set [6] and in [7] was “Not Active” throughout. The kcat/Km entry in data set [8] was “Not Active”; in [9], 13.2 M⁻¹ s⁻¹; in data set [10], 0.25 M⁻¹ s⁻¹.

B3: Alpha-1,2-mannosidase (BT_3990) (Bacteroides thetaiotaomicron), Q8A0N1 D642A (protein)
chain: MKRLLLIACILNCTLLSQAKDWTQYVNPLMGSQSTFELSTGNTYPAIARPWGMNFWTPQTGKMGDGWQYTYTANKIRGFKQTHQPSPWINDYGQFSIMPIVGQPVFDEEKRASWFAHKGEVATPYYYKVYLAEHDIVTEMTPTERAVLFRFTFPENDHSYVVVDAFDKGSYIKIIPEENKIIGYTTRNSGGVPENFKNYFIIEFDKPFTYKATVENGNLQENVAEQTTDHAGAIIGFKTRKGEQVNARIASSFISFEQAAANMNELGKDNIEQLAQKGKDAWNQVLGKIEVEGGNLDQYRTFYSCLYRSLLFPRKFYELDANGQPIHYSPYNGQVLPGYMFTDTGFWDTFRCLFPLLNLMYPSVNKEMQEGLINTYLESGFFPEWASPGHRGCMVGNNSASILVDAYMKGVKVDDIKTLYEGLIHGTENVHPEVSSTGRLGYEYYNKLGYVPYDVKINENAARTLEYAYDDWCIYRLAKELKRPKKEISLFAKRAMNYKNLFDKESKLMRGRNEDGTFQSPFSPLKWGDAFTEGNSWHYTWSVFHDPQGLIDLMGGKEMFVTMMDSVFAVPPIFDDSYYGQVIHEIREMTVMNMGNYAHGNQPIQHMIYLYDYAGQPWKAQYWLRQVMDRMYTPGPDGYCGAEDNGQTSAWYVFSALGFYPVCPGTDEYVMGTPLFKKATLHFENGNSLVIDAPNNSTENFYIDSMSFNGADHTKNYLRHEDLFKGGTIKVDMSNRPNLNRGTKEEDMPYSFSKE
B3: the Km entry in data set [11] is “Not Active”; in data set [12], 0.69 mM. Besides, the turnover number (kcat) entry in [11] is “Not Active”; in [12], 0.000533 s⁻¹. Moreover, the kcat/Km entry in data set [13] is “Not Active”; in data set [14], 0.783 M⁻¹ s⁻¹; in data set [15] it was 0.383 M⁻¹ s⁻¹.
